This note sets out measurements from US20120328625A1.

Assay [1] deals with Shh-N in conditioned medium (human) (UniProt Q15465). As to the kind of experiment: cell-based or functional assay.
The target in assay [2] is full length human Shh expressed on the cell surface (human) (UniProt Q15465). As to the kind of experiment: cell-based or functional assay.
The target is the same in assay [3]. As to the kind of experiment: flow cytometry, 293T cells transiently transfected with human Shh; antibody 2 ug/ml.
The target in assay [4] is biotinylated human Shh (human) (UniProt Q15465). As to the kind of experiment: ELISA, biotin-Shh coated at 500 ng/ml on neutravidin; antibody 1 ug/ml.
Assay [5] concerns the target full length human Shh expressed on the cell surface (human) (UniProt Q15465). As to the kind of experiment: flow cytometry, antibody 2 µg/ml, 293T cells transiently expressing human Shh.
Assay [6] shares this target. Kind of assay: FMAT, antibody 10 µg/ml on 293T cells transiently expressing human Shh.
Assay [7] has the same target. Kind of assay: flow cytometry, transfected against parental 293T cells; antibody 2 ug/ml.
Assay [8] has the same target. As to the kind of experiment: flow cytometry, transfected against parental 293T cells; antibody 0.02 ug/ml.
Assay [9] shares this target. As to the kind of experiment: flow cytometry, 293T cells transiently transfected with human Shh; antibody 0.02 ug/ml.
For assay [10] the target is unchanged. As to the kind of experiment: flow cytometry, 293T cells transiently transfected with human Shh; antibody 0.2 ug/ml.
Assay [11] shares this target. As to the kind of experiment: flow cytometry, transfected against parental 293T cells.
The target is the same in assay [12]. As to the kind of experiment: flow cytometry, transfected against parental 293T cells; antibody 0.2 ug/ml.

In assay [1], huIgG2/4 (antibody) registered a % Inhibition of Gli1 reporter, Conditioned Media N = 1, 20 µg/ml of 2% and a % Inhibition of Gli1 reporter, Conditioned Media N = 2, 20 µg/ml of 23%. In [2], this substance had a % Inhibition of Gli1 reporter, Co-Culture N = 1, 20 µg/ml of 18%; a % Inhibition of Gli1 reporter, Co-Culture N = 2, 20 µg/ml of 7%; a % Inhibition of Gli1 reporter, Co-Culture N = 3, 20 µg/ml of 2%.
The substance 5E1 (antibody) registered an IC50, inhibition of osteoblast differentiation (alkaline phosphatase) of C3H10T1/2 cells in assay [1] of 2.9 nM.
For the substance “rat anti-Shh antibody (cat# MAB4641, R&D Systems, Inc.)”, the X Geo Mean (Transients) in [3] was 965; in assay [5], 3; in [9], 28.5; in assay [10] it was 221. Further, in [4], the OD came to 4.81 OD. Also, the FL1 X COUNT in assay [6] came out at 1.47e+06. Moreover, the Ratio in assay [7] is 443; in assay [8], 13.7; in [11] it was 0.7; in [12], 106.
